# Data from patent US10227575B2, “Multi-domain enzymes having cutinase activity, compositions comprising same and uses thereof” (OZYMES, priority 2015, dated 2019).
# B1: KrCUT189: truncated KrCUT lacking the T/P-rich linker and polymer-binding domain; cutinase catalytic domain, SEQ ID NO: 2 (protein)
# chain: ATCSDVDVVFARGTGETPGLGVVGGPFVRSLTGELSDRTVTSHAVDYAASSSQASAGPGATAMSAHVREVAAACPSTRFVLGGYSQGATVTDIALGIRTGTTTGTPVPAELAGRVAAVVVFGNPLGLSGRTIATASSTYGPKSKDYCNSSDSVCGSAPKTGTGGHLSYASNGSTTDGARFAAGLVRAAG
# modifications: Kineococcus radiotolerans; (1)..(189) KrCUT catalytic domain (KrCUT189)
# Assays:
# [1] = Adsorption assay on PHB granules (Langmuir isotherm); type: binding
# Experimental: Purified KrCUT of concentrations ranging from 0.16 to 3.2 mg/mL were mixed with 25 mg PHB in 50 mM sodium phosphate (pH 8.0) in a total volume of 1 mL and mixed by gently shaking for 3 h. The PHB polymer was removed by centrifugation and the concentration of protein in the supernatant was determined by the BCA method. The concentration of bound protein at a particular concentration of cutinase was calculated as the difference between a control without added PHB and free cutinase after incubation with PHB.
# Adsorption assays were carried out following procedures of Kasuya et al. (1999). Purified KrCUT and KrCUT189 at concentrations ranging from 0.16 to 3.2 mg/mL were added to a suspension of 25 mg PHB in 50 mM sodium phosphate (pH 8.0) in a total volume 1 mL. The mixture was incubated at room temperature with gentle shaking for at least 3 h. The PHB polymer was removed by centrifugation and the concentration of protein in the supernatant was determined by the BCA method. The concentration of bound protein at a particular concentration of cutinase was calculated as the difference between a control without added PHB and free cutinase after incubation with PHB. An isotherm of [Bound](mg/mg PHB) vs [Free] (mM) was generated and binding parameters were determined by non-linear regression using the Langmuir equation:
# [formula] where [E]=Ead+[E]e, is the concentration of the protein added; Emax is the maximum amount of protein adsorbed on the polyester granules, and K is the adsorption equilibrium constant of the protein.
# [2] = Degradation of poly(1,3-propylene adipate); conditions: 2.5 μM, after 24 hours
# [3] = Experimental: Molar masses of the samples were determined with universal calibration with the refractive index detector and the viscosity detector. The universal calibration curve was based on polystyrene standards [Polymer Laboratories (Amherst, Mass.) and Aldrich (Oakville, ON)] using the molar masses determined by the manufacturer and the intrinsic viscosities measured by the apparatus. The software OmniSEC™ software from Viscotek was used for data collection and calibration. Separation in THF was performed by injecting 100 μL of 1.5-2 mg/mL solutions of standards or samples into thermostatically controlled SuperRes™ columns [35° C.; PAS-102, PAS102.5, PAS-103L, each 300 mm×8 mm; PolyAnalytik (London, ON)]. The flow rate was 1 mL/min.
# Alternatively, a thin film was prepared from 1 g of commercial available PCL pellets and used for degradation. The polymer was dissolved in dichloromethane in a 1 L beaker. The solvent was allowed to evaporate overnight and the resulting film dried to constant weight under reduced pressure. Prior to enzymatic treatment the film was cut into pieces (20 mg) of approximately 1.5 cm×1.5 cm and thickness of approximately 0.1 mm. The reaction mixture was monitored by HPLC and SEC as described above.
# To quantify this further, pellets of polycaprolactone (PCL) as well as films of PCL were incubated with KrCUT at various enzyme concentrations (1.25 μM, 2.5 μM, and 5 μM representing 4.7, 9.5 and 19 enzyme Units) at 37° C. The degradation of the polymer was followed over time by analyzing aliquots of the reaction mixture by HPLC for the detection of the released monomer (6-hydroxyhexanoic acid) and characterization of the remaining polymer by SEC after lypholization of the sample.
# [4] = Substrate range on p-NP esters, KrCUT versus KrCUT189; type: biochemical
# Experimental: (§1) Esterase activity was determined by monitoring the formation of pNP at 410 nm from various pNP-esters using a Beckman UV spectrophotometer (model DU 640) (21). Substrates were dissolved in isopropanol and were added to 50 mM sodium phosphate buffer pH 8.0 to give 10% (v/v) total isopropanol concentration in a 1 mL reaction volume. pNP-butyrate was used at a final concentration of 1.2 mM. For pNP-caprylate, myristate and palmitate, the final concentration ranged from 0.1 to 0.5 mM. The reaction (1 mL) was started by adding an appropriate amount of enzyme. One enzyme unit (U) is defined as the amount of enzyme that produced 1 μmol of product (pNP) per min; specific activity is expressed as U/mg protein. A molar extinction coefficient of 15 mM^−1 cm^−1 for pNP is used for calculating enzyme activity.
# [5] = pH optimum in Universal Buffer; type: biochemical; conditions: pH 5-11, p-nitrophenyl butyrate
# Experimental: as §1
# Universal Buffer solutions were prepared according to Britton and Robinson (Surinenaite et al., 2002), having the selected pH value from 5-11. Activity of KrCUT and KrCUT189 were measured at the indicated pH, using p-nitrophenyl butyrate as substrate as described in Example 1, section 1.6). Curves were obtained by plotting values of activity against pH.
molecule,measurement,setting,value
B1,binding to PHB,[1],no binding
same,adipic acid found in the reaction mixture,[2],17%
same,degradation of PCL pellets and PCL films compared with KrCUT,[3],Nearly identical results
same,activity towards pNB-acetate,[4],little activity
same,activity towards pNP-myristate compared to KrCUT,[4],higher
same,activity with various substrates compared to the full length protein,[4],lower activity
same,substrate giving the highest activity,[4]; p-NP esters,pNP-myristate
same,pH optimum,[5],8
